What was measured:
Assay in all cases: EMSA; not stated; EMSA performed as in a previous study (ref 68)
MBP-SlEIL3 = molecular target: T1, MBP-SlEIL3 (Solanum lycopersicum (tomato), UniProt Q94FV2 1-601); details: protein: recombinant; tags: MBP (pMAL-c5G); chain copies: 2; label: 5' biotin; blunt
T1 sequence: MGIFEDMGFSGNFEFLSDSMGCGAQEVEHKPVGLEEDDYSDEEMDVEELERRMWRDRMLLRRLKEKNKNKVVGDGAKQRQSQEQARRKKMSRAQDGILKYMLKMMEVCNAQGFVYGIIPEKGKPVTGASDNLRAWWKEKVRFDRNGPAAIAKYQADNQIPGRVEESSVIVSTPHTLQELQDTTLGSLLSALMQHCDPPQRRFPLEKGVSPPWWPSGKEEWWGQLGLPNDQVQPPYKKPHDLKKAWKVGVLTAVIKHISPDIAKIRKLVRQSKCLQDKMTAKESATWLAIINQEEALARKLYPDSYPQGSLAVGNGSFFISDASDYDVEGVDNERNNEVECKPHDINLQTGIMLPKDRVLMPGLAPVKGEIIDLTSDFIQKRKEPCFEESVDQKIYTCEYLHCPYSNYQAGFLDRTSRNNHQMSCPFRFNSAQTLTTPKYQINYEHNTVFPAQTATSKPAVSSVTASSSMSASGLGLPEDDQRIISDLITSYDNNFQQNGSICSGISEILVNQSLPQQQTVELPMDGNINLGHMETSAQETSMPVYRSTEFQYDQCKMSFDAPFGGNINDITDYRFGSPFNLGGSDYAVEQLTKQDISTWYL

MBP-SlEIL2 = molecular target: T2, MBP-SlEIL2 (Solanum lycopersicum (tomato), UniProt Q94FV3 1-614); details: protein: recombinant; tags: MBP (pMAL-c5G); chain copies: 2; label: 5' biotin; blunt
T2 sequence: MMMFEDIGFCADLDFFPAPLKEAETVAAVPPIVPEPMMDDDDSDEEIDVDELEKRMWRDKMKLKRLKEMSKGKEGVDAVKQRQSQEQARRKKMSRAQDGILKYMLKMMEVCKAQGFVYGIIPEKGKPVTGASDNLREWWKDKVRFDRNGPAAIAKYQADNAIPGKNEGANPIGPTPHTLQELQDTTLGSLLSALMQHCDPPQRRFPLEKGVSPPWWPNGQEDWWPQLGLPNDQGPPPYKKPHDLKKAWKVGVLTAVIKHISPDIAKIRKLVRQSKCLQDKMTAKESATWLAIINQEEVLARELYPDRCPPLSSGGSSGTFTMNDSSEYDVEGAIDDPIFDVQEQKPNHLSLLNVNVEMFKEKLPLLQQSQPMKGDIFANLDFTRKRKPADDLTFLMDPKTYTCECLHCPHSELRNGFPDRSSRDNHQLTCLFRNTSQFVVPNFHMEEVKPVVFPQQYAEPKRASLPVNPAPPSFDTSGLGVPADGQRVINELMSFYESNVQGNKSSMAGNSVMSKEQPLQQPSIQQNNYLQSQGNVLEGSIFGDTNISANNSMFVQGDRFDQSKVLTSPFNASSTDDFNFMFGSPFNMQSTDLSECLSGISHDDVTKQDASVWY

MBP-SlEIL1 = molecular target: T3, MBP-SlEIL1 (Solanum lycopersicum (tomato), UniProt Q94FV4 1-610); details: protein: recombinant; tags: MBP (pMAL-c5G); chain copies: 2; label: 5' biotin; blunt
T3 sequence: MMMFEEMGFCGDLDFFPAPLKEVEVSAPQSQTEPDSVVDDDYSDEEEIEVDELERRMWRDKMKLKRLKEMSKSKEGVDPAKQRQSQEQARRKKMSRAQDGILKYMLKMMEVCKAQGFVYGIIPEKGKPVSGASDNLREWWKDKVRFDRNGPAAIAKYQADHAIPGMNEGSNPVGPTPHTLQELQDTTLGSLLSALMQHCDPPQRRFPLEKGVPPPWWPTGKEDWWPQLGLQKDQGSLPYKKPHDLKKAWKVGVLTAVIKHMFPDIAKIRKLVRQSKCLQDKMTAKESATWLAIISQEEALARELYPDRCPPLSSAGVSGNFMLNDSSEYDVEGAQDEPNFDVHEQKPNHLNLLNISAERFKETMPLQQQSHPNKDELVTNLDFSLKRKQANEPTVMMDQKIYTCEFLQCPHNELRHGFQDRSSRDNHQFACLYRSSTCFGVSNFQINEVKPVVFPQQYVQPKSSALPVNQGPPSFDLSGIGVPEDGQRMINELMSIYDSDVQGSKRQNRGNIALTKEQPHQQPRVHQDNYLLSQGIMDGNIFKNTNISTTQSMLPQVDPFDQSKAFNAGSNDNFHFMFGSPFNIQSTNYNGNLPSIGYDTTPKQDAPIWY

MBP-SlEIL4 = MBP-SlEIL4 (Solanum lycopersicum (tomato), UniProt A0A3Q7GZH0 1-605); details: protein: recombinant; tags: MBP (pMAL-c5G); label: 5' biotin; blunt

Measured: binding result

B1: SlERF.D2 promoter EBS probe WT (dsDNA)
DNA 1: GTTATAACAGACATACATGCGCTAATATCG
DNA 2: CGATATTAGCGCATGTATGTCTGTTATAAC
binds: MBP-SlEIL3 | MBP-SlEIL2 | MBP-SlEIL1 | MBP-SlEIL4

Reference: PMC12861479, “SlERF.D2-mediated antagonism between ethylene and ABA signaling pathways modulates osmotic stress adaptation in tomato”
